The subject of experiment [1] is GST-Nogo-induced growth cone collapse. Kind of experiment: Blockade of Nogo-induced growth cone collapse in chick DRG cultures. In kind it is cell-based. Conditions: GST-Nogo / Nogo-66 as collapsing agent. The procedure:
(§1) For all experiments involving cell culture, the following methods were employed. The culture of embryonic chick E10 and E12 dorsal root ganglion explants and dissociated neurons utilized methods described for E7 dorsal root ganglion cultures (Takahashi et al., (1998) Nature Neurosci. 1, 487-493; Takahashi et al., (1999) Cell 99, 59-69; Goshima et al., (1995) Nature 376, 509-514; Jin & Strittmatter, (1997) J. Neurosci. […]). NGF-differentiated PC12 cells were cultured as described (Strittmatter et al., (1994) J. Neurosci. 14, 2327-2338). Embryonic spinal cord explants (rat E10 or chick E5) were cultured for 7-14 days in the presence of PDGF-AA to induce differentiation of some cells into mature oligodendrocytes (Vartanian et al., (1999) Proc. Natl. Acad. Sci. USA 96, 731-735). The procedure for growth cone collapse assays is identical to that for analysis of Sema3A-induced growth cone collapse (Takahashi et al., (1998) Nature Neurosci. 1, 487-493; Takahashi et al., (1999) Cell 99, 59-69; Goshima et al., (1995) Nature 376, 509-514; Jin & Strittmatter, (1997) J. Neurosci. 17, 6256-6263). The method for analysis of total neurite outgrowth has also been described (Goshima et al., (1995) Nature 376, 509-514; Jin & Strittmatter, (1997) J. Neurosci. 17, 6256-6263; Strittmatter et al., (1994) J. Neurosci. 14, 2327-2338). In outgrowth assays, proteins and peptides were added one hour after plating to minimize any effect on the total number of adherent cells. To test the effect of substrate-bound GST or GST-Nogo, the protein solutions were dried on poly-L-lysine coated glass, washed and then coated with laminin. For E12 cultures, the neuronal identity of cells was verified by staining with anti-neurofilament antibodies (2H3, Develomental Studies Hybridoma Bank) and neurites were traced by observation of rhodamine-phalloidin staining of F-actin in processes.
In the growth cone collapse assay, the response to Nogo was measured in the presence of various potential antagonistic peptides. […] This blockade supports the hypothesis that Nogo is a primary inhibitory component of CNS myelin.
For further testing, a synthetic peptide containing amino acid residues #1055-1094 of hNgR, acetylated at the […] was used [hereinafter “Peptide 140”]. […] Antagonist of Nogo-66 inhibitory activity may act by competing for, and thereby blocking NgR binding sites. To determine the antagonistic activity of Peptide 140, the above synthetic form of the peptide was added to E12 chick DRG explant cultures approximately 10 min before application of various concentrations of GST-NogoA (residues #1055-1120), TPA or Sema3A. 30 min later, cultures were fixed and growth cone collapse was assessed following staining with rhodamine-phalloidin.

Experiment [2] deals with chick dorsal root ganglion neurons. Description: Neurite outgrowth assay in chick DRG neurons. The class given is cell-based. The procedure:
as §1
For neurite outgrowth assays, plastic chamber slides were coated with 100 μg ml^−1 poly-L-lysine, washed, and dried. 3 μl drops of PBS containing GST-Nogo-66 were spotted and dried. Slides were then rinsed and coated with 10 μg ml fs24^−1 laminin before addition of dissociated E12 chick DRGs. AP-fusion proteins were added at the time of cell plating. Cultures were grown for 5-7 h after which neurite outgrowth was assessed.

The target in experiment [3] is chick E12 dorsal root ganglion neurons. Kind of experiment: AP-Nogo binding to chick dorsal root ganglion neurons. The text has this:
(a) is a photograph of a gel and an immunoblot where the His-AP-Nogo (66 amino acid) protein was expressed in HEK293T cells, and purified from conditioned medium on a Nickel-containing resin via the His tag. Purified protein was subjected to SDS-PAGE and stained for total protein with CBB or immunoblotted with anti-Nogo antibodies (anti-Nogo). Molecular weight markers of 200, 116, 97, 65 and 45 kDa are shown at left, and the migration of AP-Nogo at right. (b) is a photograph of dissociated chick E12 dorsal root ganglion neurons that were incubated with 10 nM AP-Nogo or 10 nM AP-Nogo+160 nM GST-Nogo for sixty minutes at 23° C. The cells were washed, fixed and incubated at 60° C. in order to inactivate endogenous AP. Bound AP-Nogo was detected by incubation with nitro blue tetrazolium. Note the intense neuronal staining by AP-Nogo that is displaced by unlabeled ligand. (c) is a graph displaying experimental data where the potency of AP-Nogo and GST-Nogo in E12 chick dorsal root ganglion growth cone collapse assays was assessed as described in the Example section. The EC50 of AP-Nogo was determined to be 1 nM or less. The means±s.e.m. calculated from five to eight determinations are illustrated. (d) is a graph displaying experimental data where the binding of 10 nM AP-Nogo to chick E12 dorsal root ganglion neurons was assessed alone, or in the presence of 100 nM GST-Nogo or in the presence of 4 μM Pep2, which was quantified from experiments as in (b) by the method described in the Example section. The means±s.e.m. calculated from eight determinations are shown. (e) is a graph displaying experimental data where AP-Nogo binding to dorsal root ganglion neurons was measured as a function of AP-Nogo concentration. This is one of six experiments with similar results. (f) is a graph summarizing the data from (e) replotted for Scatchard analysis. The apparent Kd for AP-Nogo binding to E12 chick dorsal root ganglion neurons is 3 nM. […]

Where [4] appears, read: soluble protein or peptide added to culture.

“Also recorded” adds a separate entry of the source.

As to “Peptide 140: synthetic peptide of amino acids #1055-1094 of the human NogoA protein, acetylated and amidated at the termini (Ac-RIYKGVIQAIQKSDEGHPFRAYLESEVAISEELVQKYSNS-NH2; UniProt Q9NQC3 1055-1094, looked up, fragment)”, in experiment [1], the “blockade of Nogo-induced growth cone collapse (in words)” value is reported as “significantly blocks growth cone collapse”. Also, the “neurite/axon outgrowth (in words)” value in experiment [2] (setting [4]) is “no observable effect on neurite outgrowth”.
“Pep2-41: 2-41 fragment of the 66 amino acid region of Nogo, acetylated and amidated at the termini (Ac-RIYKGVIQAIQKSDEGHPFRAYLESEVAISEELVQKYSNS-NH2)”: the “blockade of Nogo-induced growth cone collapse (in words)” value in experiment [1] is “abolishes GST-Nogo-induced growth cone collapse”. For the same molecule, the Ki in experiment [3] (binding of 10 nM AP-Nogo, read-out: apparent Ki in the binding assay) was 150 nM.

B1: NgR-ecto: secreted fragment of amino acid residues 1-348 of the murine NgR, in HEK293T conditioned medium (protein)
chain: CPGACVCYNEPKVTTSCPQQGLQAVPTGIPASSQRIFLHGNRISHVPAASFQSCRNLTILWLHSNALARIDAAAFTGLTLLEQLDLSDNAQLHVVDPTTFHGLGHLHTLHLDRCGLRELGPGLFRGLAALQYLYLQDNNLQALPDNTFRDLGNLTHLFLHGNRIPSVPEHAFRGLHSLDRLLLHQNHVARVHPHAFRDLGRLMTLYLFANNLSMLPAEVLMPLRSLQYLRLNDNPWVCDCRARPLWAWLQKFRGSSSEVPCNLPQRLADRDLKRLAASDLEGCAVASGPFRPIQTSQLTDEELLSLPKCCQPDAADKASVLE
modifications: left off: small tags and cut ends
notes: secreted fragment of amino acid residues 1-348 of the murine NgR, in HEK293T conditioned medium
In the case of B1, the results for the “blockade of Nogo-induced growth cone collapse (in words)” value in experiment [1], in experiment [1] (listed as NgR ectodomain protein) and in experiment [1] (listed as mNgR ectodomain protein) were “prevents Nogo-66-induced growth cone collapse”, “blocked” and “blocked”, respectively. Besides, the “reduction of binding of AP-Nogo-66” value in experiment [3] (0.5 nM AP-Nogo-66, NgR-ecto conditioned medium, dorsal root ganglion neurons) was found to be 80%.

B2: GST-Nogo: GST fusion protein of the 66 amino acid lumenal-extracellular fragment of Nogo-A, expressed in E. coli (protein)
chain: RIYKGVIQAIQKSDEGHPFRAYLESEVAISEELVQKYSNSALGHVNCTIKELRRLFLVDDLVDSLK
modifications: also: GST fusion protein
notes: GST fusion protein of the 66 amino acid lumenal-extracellular fragment of Nogo-A, expressed in E. coli
In the case of B2, the “neurite/axon outgrowth (in words)” value in experiment [2] (setting [4]) is listed as “blocked”; in experiment [2] (soluble protein or peptide added to culture, listed as Nogo-66), “nearly abolishes axonal extension”; in experiment [2] (substrate-bound / coated surfaces), “reduced to undetectable levels”; in experiment [2] (substrate-bound / coated surfaces, listed as GST-hNogoA (residues #1055-1120)), “dramatically reduces growth”. Besides, in experiment [3], the “blockade of AP-Nogo binding (in words)” value is listed as “blocked; also recorded: displaced”.

Source of the values: patent US8394929B2, “Nogo receptor-mediated blockade of axonal growth” (Yale University, priority 2000, dated 2013).
